Results taken from patent publication US20210395393A1 (EMSTOPA, published 2021).
Where a chain is given by its changes, count along the chain named. One block for each binder: values may come before it.

What was measured:
[1] = molecular target: T1, recombinant human tPA (rh-tPA: abcam ab92637) (human, UniProt P00750 36-562); experiment: cell-based or functional assay
[2] = molecular target: T1, recombinant human tPA (rh-tPA: abcam …); experiment: binding ELISA, plate coated with human tPA
Excerpt: (§1) Binding activity of the purified TPAi-1 RHP/RKA F(ab′)2 to the human tPA antigen was compared to that of the purified TPAi-1 RHP/RKA whole IgG1 antibody and RHP/RKA Fab in a binding ELISA. […] The EC50 values for the IgG1 and Fab are in agreement with those seen in earlier experiments. There is a consistent 4-fold difference in avidity between these two formats.

[3] = molecular target: T1, recombinant human tPA (rh-tPA: abcam …); experiment: binding ELISA, plate coated with human tPA; reference TPAi-1 RHP/RKA IgG1
Excerpt: as §1

[4] = molecular target: T1, recombinant human tPA (rh-tPA: abcam …); experiment: binding ELISA, plate coated with human tPA; Fab as Expi293 conditioned medium
Excerpt: (§2) Binding activity of the TPAi-1 RHP/RKA Fab to the human tPA antigen was compared to that of the purified TPAi-1 RHP/RKA antibody in a binding ELISA. […] Following purification of TPAi-1 RHP/RKA Fab from a large scale culture, its binding to human tPA was reconfirmed by ELISA (FIG. 23). In this assay, plateauing of both binding curves was more apparent.

[5] = molecular target: T1, recombinant human tPA (rh-tPA: abcam …); experiment: binding ELISA, plate coated with human tPA; reference TPAi-1 RHP/RKA Fab
Excerpt: as §2

[6] = molecular target: T1, recombinant human tPA (rh-tPA: abcam …); experiment: binding ELISA to human tPA after serum incubation
Description: Purified samples of humanised antibodies TPAi-1 RHE/RKA and RHP/RKA were incubated in mouse, human and cynomolgus serum (4.10.1). The binding abilities of the antibodies after 29 days incubation were measured by binding ELISA to human tPA. For each antibody, one ELISA plate compared the binding of the 4° C. control sample to samples incubated at 37° C. in PBS and human serum. A second ELISA plate compared the binding of the 4° C. control sample to samples incubated at 37° C. in mouse and cynomolgus serum. […] Therefore the TPAi-1 RHE/RKA and RHP/RKA antibodies retained their binding capabilities on incubation in mouse, human and cynomolgus serum for 29 days.

T1 sequence (P00750 36-562 limits assumed): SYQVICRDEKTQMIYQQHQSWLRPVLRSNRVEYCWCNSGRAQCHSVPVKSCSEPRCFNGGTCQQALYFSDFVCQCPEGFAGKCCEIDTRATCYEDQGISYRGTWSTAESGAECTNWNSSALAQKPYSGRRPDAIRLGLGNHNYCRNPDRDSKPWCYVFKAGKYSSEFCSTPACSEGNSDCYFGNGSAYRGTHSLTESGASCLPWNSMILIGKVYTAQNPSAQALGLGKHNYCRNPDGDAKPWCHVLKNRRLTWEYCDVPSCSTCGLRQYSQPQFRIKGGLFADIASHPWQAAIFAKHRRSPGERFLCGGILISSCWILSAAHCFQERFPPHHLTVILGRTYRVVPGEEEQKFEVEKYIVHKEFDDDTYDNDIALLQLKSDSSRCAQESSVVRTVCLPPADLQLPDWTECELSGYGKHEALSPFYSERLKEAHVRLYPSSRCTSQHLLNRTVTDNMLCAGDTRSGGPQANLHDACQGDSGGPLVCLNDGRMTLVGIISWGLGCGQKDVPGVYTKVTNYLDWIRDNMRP

inhibition of human plasma clot lysis (t-PA 1.5 nM, A405 nm turbidity) [1]: ~2 fold (amount against TPAi-1 RHP/RKA) | EC50 [2]: 1.68 nM | fold difference in avidity between IgG1 and Fab [3]: 4 fold | EC50 [4]: 1.15 nM
B1: TPAi-1 RHP/RKA Fab (Fab, V domains shown)
VH: QVQLVQSGAEVKKPGASVKVSCKASGNTSYWINWVRQATGQGLEWMGRIDPGGGSTGYAQKFQGRVTMTRDTSISTAYMELSSLRSEDTAVYYCASYYYAMAYWGQGTLVTVSS
VL: DVVMTQSPLSLPVTPGEPASISCRSSQSIVHSNGNTYLDWYLQKPGQSPQLLIYKVSNRASGVPDRFSGSGSGTDFTLKISRVEAEDVGVYYCFQGSHVPWTFGGGTKVEIK
notes: Recombinant Fab: RHP variable region in pHuG1_Fab vector with RKA in pHuK, expressed in Expi293 cells; also called TPAi-1 RHP/PKA Fab; humanised Fab

EC50 [2]: 0.379 nM
B2: TPAi-1 RHP/RKA F(ab')2 (other)
VH: B1 VH
VL: B1 VL
notes: F(ab')2 made by pepsin digestion of TPAi-1 RHP/RKA IgG1 kappa and gel filtration

EC50 [2]: 0.475 nM | plateau A650 of the binding curve against the plateau of the Fab curve [5]: ~1.4 fold
B3: TPAi-1 RHP/RKA (antibody, V domains shown)
VH: B1 VH
VL: B1 VL
notes: Human IgG1 kappa (pHuG1 / pHuK vectors); also called humanised TPAi-1 (RHP/RKA); humanized TPAi-1

binding result [6]: binds
B4: TPAi-1 RHE/RKA (antibody, V domains shown)
VH: B1 VH with D71N
VL: B1 VL
notes: Human IgG1 kappa
